Measurements as given in PMC8924211 (Nature Communications, 2022).
Changes are numbered by the printed parent chain.

Columns and labels:
Test in all cases: AlphaScreen or HTRF; saturation binding: HEK293 cells transfected with SNAP-tagged receptor (WT or mutant) and labelled with SNAP-Lumi4-Tb, incubated with increasing concentrations of galanin-A2 in the presence or absence of 100 uM unlabeled galanin, 1 h at room temperature; HTRF ratio 665 nm/620 nm
Conditions in all cases: one partner purified
SNAP-GAL1R I266^6.54A = biological target: T1, SNAP-GAL1R I266^6.54A (human, UniProt P47211 1-349, I266^6.54A, Lumi4-Tb on the SNAP tag)
T1 construct: also called I266A; source: HEK293, transfected, on cells; not shown: SNAP tag, N-terminal, kept
T1 sequence (looked up): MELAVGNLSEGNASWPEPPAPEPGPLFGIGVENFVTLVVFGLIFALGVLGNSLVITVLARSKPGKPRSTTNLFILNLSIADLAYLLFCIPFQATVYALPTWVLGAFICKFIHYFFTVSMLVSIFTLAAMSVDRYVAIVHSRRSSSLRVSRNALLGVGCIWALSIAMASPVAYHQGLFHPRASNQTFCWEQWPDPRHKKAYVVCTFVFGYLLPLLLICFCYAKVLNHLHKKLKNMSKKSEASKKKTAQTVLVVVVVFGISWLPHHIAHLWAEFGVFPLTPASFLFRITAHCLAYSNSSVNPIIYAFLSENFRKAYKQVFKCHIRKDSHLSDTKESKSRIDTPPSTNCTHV

SNAP-GAL1R H263^6.51A = biological target: T2, SNAP-GAL1R H263^6.51A (human, UniProt P47211 1-349, H263^6.51A, Lumi4-Tb on the SNAP tag)
T2 construct: also called H263A; source: HEK293, transfected, on cells; not shown: SNAP tag, N-terminal, kept
T2 sequence (looked up): T1 sequence (looked up) with H263A, A266I

SNAP-GAL1R H289^7.39A = biological target: T3, SNAP-GAL1R H289^7.39A (human, UniProt P47211 1-349, H289^7.39A, Lumi4-Tb on the SNAP tag)
T3 construct: also called H289A; source: HEK293, transfected, on cells; not shown: SNAP tag, N-terminal, kept
T3 sequence (looked up): T1 sequence (looked up) with A266I, H289A

SNAP-GAL1R H112^3.29A = biological target: T4, SNAP-GAL1R H112^3.29A (human, UniProt P47211 1-349, H112^3.29A, Lumi4-Tb on the SNAP tag)
T4 construct: also called H112A; source: HEK293, transfected, on cells; not shown: SNAP tag, N-terminal, kept
T4 sequence (looked up): T1 sequence (looked up) with H112A, A266I

SNAP-GAL1R R285^7.35A = biological target: T5, SNAP-GAL1R R285^7.35A (human, UniProt P47211 1-349, R285^7.35A, Lumi4-Tb on the SNAP tag)
T5 construct: also called R285A; source: HEK293, transfected, on cells; not shown: SNAP tag, N-terminal, kept
T5 sequence (looked up): T1 sequence (looked up) with A266I, R285A

B1: galanin-A2 (full-length galanin labeled with the dye A2 on an additional cysteine at the C-terminal end) (peptide)
peptide: GWTLNSAGYLLGPHAVGNHRSFSDKNGLTSC
modifications: dye A2 on the additional C-terminal cysteine
notes: numbers count on: the mature protein; additional cysteine at the C-terminal end of the peptide, carries the dye A2; source: synthetic peptide (synthesized by Vazyme, China)
B1 was tested, and the Kd (SNAP-GAL1R I266^6.54A) was 245 nM, the Kd (SNAP-GAL1R H263^6.51A) was 213 nM and the Kd (SNAP-GAL1R H289^7.39A) was 136 nM. The Kd (SNAP-GAL1R H112^3.29A) was 59.8 nM and the Kd (SNAP-GAL1R R285^7.35A) was 159 nM.
